The target of data set [1] is T1, rGPBP (Homo sapiens, UniProt Q9Y5P4).
T1 construct: made in house; host or cells: Pichia pastoris GS115
T1 sequence (Q9Y5P4 1-624): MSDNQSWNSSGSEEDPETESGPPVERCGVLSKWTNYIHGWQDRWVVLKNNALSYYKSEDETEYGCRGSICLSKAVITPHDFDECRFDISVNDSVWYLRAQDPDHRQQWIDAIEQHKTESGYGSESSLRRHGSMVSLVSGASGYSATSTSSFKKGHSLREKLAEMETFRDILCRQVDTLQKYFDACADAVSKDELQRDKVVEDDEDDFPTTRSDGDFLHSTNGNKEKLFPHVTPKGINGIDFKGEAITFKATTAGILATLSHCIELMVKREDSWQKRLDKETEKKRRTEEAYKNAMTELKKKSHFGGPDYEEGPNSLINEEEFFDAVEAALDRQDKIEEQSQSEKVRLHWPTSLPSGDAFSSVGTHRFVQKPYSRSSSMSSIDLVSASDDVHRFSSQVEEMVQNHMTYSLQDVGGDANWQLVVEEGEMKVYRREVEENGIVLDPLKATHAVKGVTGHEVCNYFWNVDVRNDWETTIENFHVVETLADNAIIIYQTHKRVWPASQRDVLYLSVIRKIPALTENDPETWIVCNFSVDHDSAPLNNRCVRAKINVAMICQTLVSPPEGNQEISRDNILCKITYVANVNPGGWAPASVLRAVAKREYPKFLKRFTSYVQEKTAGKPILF
Description: In vitro phosphorylation of GP antigen-derived peptides by rGPBP. It counts as biochemical. The following applies: about 200 ng yeast rGPBP, 10 nmoles peptide, γ-32P-ATP. The method, then:
FIG. 5. Recombinant GPBP contains a serine/threonine kinase that specifically phosphorylates the N-terminal region of the human GP antigen. To assess phosphorylation, approximately 200 ng of yeast rGPBP was incubated with [γ]^32P-ATP in the absence (A and B) or presence of GP antigen-derived material (C). In (A), the mixture was subjected to reducing SDS-PAGE (10% gel) and autoradiographed. In (B), the mixture was subjected to ^32P-phosphoamino acid analysis by two-dimensional thin-layer chromatography. The dotted circles indicate the position of ninhydrin stained phosphoamino acids. In (C), the phosphorylation mixtures of the indicated GP-derived material were analyzed by SDS-PAGE (15% gel) and autoradiography (GPpep1 and GPpep1Ala^9) or immunoprecipitated with Mab 17, a monoclonal antibody that specifically recognize GP antigen from human and bovine origin, and analyzed by SDS-PAGE (12.5%) and autoradiography (rGP, GP). The relative positions of rGPBP (A), rGP antigen and the native human and bovine GP antigens (C) are indicated by arrows. The numbers and bars refer to molecular weight markers as in previous Figures. […]

Data set [2] addresses T2, GPBP (Homo sapiens, UniProt Q9Y5P4).
T2 construct: made in house; host or cells: Pichia pastoris GS115
T2 sequence (Q9Y5P4 1-624): T1 sequence (Q9Y5P4 1-624)
Description: In vitro GPBP autophosphorylation in the presence of GPΔIII-derived peptide. The format is biochemical. The following applies: about 200 ng rGPBP, 150 μM ATP, 5 nmol peptide. The method, then: FIG. 20. Regulation of the GPBP by the C terminal region of GPΔIII. About 200 ng of rGPBP were in vitro phosphorylated with 150 μM ATP in the absence (lane 1) or in the presence of 5 nmol of GPΔIII-derived peptide synthesized either using Boc-(lane 2) or Fmoc-(lane 3) chemistry. The reaction mixtures were subjected to SDS-PAGE, transferred to PVDF and autoradiographed to asses autophosphorylation, and subsequently blotted with anti-FLAG monoclonal antibodies (Sigma) to determine the amount of recombinant material present (Western).
In vitro phosphorylation assays-About 200 ng of rGPBP were incubated overnight at 30° C. in 25 mM β-glycerolphosphate (pH 7.0), 0.5 mM EDTA, 0.5 mM EGTA, 8 mM MgCl2, 5 mM MnCl2, 1 mM DTT and 0.132 μM γ-^32P-ATP, in the presence or absence of 0.5-1 μg of protein substrates or 10 nmoles of synthetic peptides, in a total volume of 50 μl.
(§1) Phosphorylation studies. Phosphorylation studies were essentially done as described above (see also 3 and 12). In some experiments, the substrates were in-blot renatured and then, phosphorylated for 30 min at room temperature by overlaying 100 μl of phosphorylation buffer containing 0.5 μg of rGPBP. Digestion with V8 endopeptidase and immunoprecipitation were performed as described in (3).

The nature of data set [3]: Loss of PKA-inducing activity of the peptide on storage. It counts as physicochemical. The following applies: long storage at low temperatures.
The target in data set [4] is PKA (Homo sapiens, UniProt P17612). The data set can be described thus: PKA phosphorylation of native GP antigen (α3(IV)NC1 domain or hexamer) in the presence of C-terminal peptides. The format is biochemical. The following applies: 0.1 μM ATP, 10 nmol peptide, purified α3(IV)NC1 domain or hexamer. The method, then:
FIG. 16. Phosphorylation of GP alternative splicing products by PKA. In left panel, equimolecular amounts of rGP (lanes 1), rGPΔV (lanes 2), rGPΔIII (lanes 3) or rGPΔIII/IV/V (lanes 4), equivalent to 500 ng of the GP were phosphorylated at the indicated ATP concentrations. One-fifth of the total phosphorylation reaction mixture was separated by gel electrophoresis and transferred to PVDF, autoradiographed (shown) and the proteins blotted with M3/1, a specific monoclonal antibody recognizing all four species (shown) or using antibodies specific for each individual C-terminal region (not shown). […] Right panel: purified α3(IV)NC1 domain or hexamer was phosphorylated with PKA and 0.1 μM ATP in the absence (lanes 1) or in the presence of 10 nmol of peptides representing the C-terminal region of either GPΔIII (lanes 2) or GPΔIII/IV/V (lanes 3). Where indicated the phosphorylation mixtures of purified α3(IV)NC1 domain were V8 digested and immunoprecipitated with antibodies specific for the N terminus of the human α3(IV)NC1 domain (3). Bars and numbers indicate the position and sizes (kDa) of the molecular weight markers.
as §1

Consider “KGKRGDAGSPATWTTRGFVFT [GPpep1Ala^9, mutant Ser9 to Ala9 of GPpep1, residues 3-23 of the human GP antigen]”, for which, in data set [1], the “32P incorporation by rGPBP, compared with GPpep1” value is listed as “lower ^32P incorporation”.

For QRAHGQDLDALFVKVLRSP [Boc-based peptide], the “effect on GPBP autophosphorylation” value in data set [2] (listed as Boc-based synthetic peptides) was “positively influenced GPBP autophosphorylation”. For the same sequence, the “stability of biological activity (ability to induce PKA) on storage” value in data set [3] is recorded as “loses its ability to induce PKA upon long storage at low temperatures”.

Take “QRAHGQDLDALFVKVLRSP [Fmoc-based peptide]”: the “induction of GP antigen phosphorylation by PKA” value (shortened to “induction”) in data set [4] (listed as Fmoc-based peptides) is reported as “not”. Besides, in data set [2], the “effect on GPBP autophosphorylation” value is given as “inhibited GPBP autophosphorylation”.

As for “QRAHGQDLDALFVKVLRSP [GPΔIII derived peptide, synthetic peptide representing the C-terminal region of GPΔIII, chemistry not specified at the place]”, the “induction” value in data set [4] (listed as SEQ ID NO: 43) is recorded as “induced the phosphorylation of a single polypeptide”.

On to “QRAHGQDLESLFHQL [GPΔIII/IV/V derived peptide, synthetic peptide representing the C-terminal region of GPΔIII/IV/V]”, for which the “induction” value in data set [4] is “induced the phosphorylation of a single polypeptide”.

Values taken from patent US7629132B2, “Goodpasture antigen binding protein” (priority 1999, dated 2009).
